By stoichiometry N is commonly meant the number of molecules, sites or subunits per partner or assembly.

The source of these data is PMC12350162 (Nature, 2025).

The series concerns the molecule itself. The series is described as follows: cryo-EM structure; 1-MDa fraction of the Superose 6 Increase step, 1 mg/ml, frozen anaerobically at once after purification; Titan Krios G3i, K3; focused maps of Hdr(ABC)2 and of the Elp arm in two conformational states.

B1: heterodisulfide reductase HdrABC (complex)
chain 1: MAEEKKETMEEPKIGVYVCHCGVNIGGVVDVEAVRDYAAKLPNVVIAKDYKYYCSDPGQLEIQKDIKELGINRVVVAACSPRLHEPTFRRCVEEAGLNQFLFEFANIREHDSWVHMDNPEGATEKAKDLVRMAVAKARLLEPLEASKVSVDDKALVIGGGVAGIQAALDLADMGFKTYMVEKRPSISGRMGQLDKTFPTLDCSMCILAPKMVDVGKHDNIELITYAEVKEVDGYIGNFKVKIEKKPRYIDEELCTGCGSCVEVCPIEMPNYFDEGIGMTKAVYIPFPQAVPLCATIDKDYCIECMLCDEVCERGAVKHDQEPEEIEIEVGTIIVATGYDAYDPTEKLEYGYGRHTNVITGLELERMINASGPTDGKVLKPSDGEKPKRVAFIHCVGSRDEQIGKPYCSRVCCMYIMKNAQLIKDKMPDTEVTLYYMDIRAFGKGFEEFYKRSQEKYGIKFIRGRPAEVIENPDLTLTVRSEDTLLGKVTEYDYDMVVLGVGLVPPEGAETLRQTIGLSKSADGFLMEAHPKLRPVDTLTDGVYLAGVAQGPKDIPDAVAQASGAAARAAIPMVKGEVEIEPIIAVTDSDVCGGCEVCIELCPFGAISIEEGHANVNVALCKGCGTCVAACPSGAMDQQHFKTEQIMAQIEAALNEPASK
chain 2: not shown
chain 3: MTLLQREENIIRKGNIDKEFSEKIKAAGGDSLEYCFQCGTCTGSCPSGRRTPYRVRQIIRKANVGLKDEIISDPTLWMCTTCYSCQERCPRKVKIVDVVKLARNEAAKAGFMAPAHKAVGSFVIKTGHGVPINDATMELRKAVGLGELPPTTHQFPEALEEVQKIIKATGFDQLIGYNWETGELE
notes: also called Hdr(ABC)2; (HdrABC)2
For the protein B1, the “stoichiometry N” value was found to be 2.
